This note sets out measurements from publication PMC2686265, “ATP and MO25α Regulate the Conformational State of the STRADα Pseudokinase and Activation of the LKB1 Tumour Suppressor” (PLoS Biology, 2009).

As usually defined, the Kd is the free concentration of one partner at which half of the binding sites on the other are occupied at equilibrium, for simple one-to-one binding. Higher therefore signals a looser complex.

Residue numbers refer to the chain shown, from its start. Names and notes keep the numbering of the source.

Test [1] deals with T1, STRADα (Homo sapiens, UniProt Q7RTN6).
T1 construct: wild-type and mutant forms of STRADα (residues 54–431) and MO25α (residues 1–341) were expressed individually as GST fusion proteins in E. coli; GST (cleaved yes); made in house; host or cells: E. coli
T1 sequence (Q7RTN6 54-431): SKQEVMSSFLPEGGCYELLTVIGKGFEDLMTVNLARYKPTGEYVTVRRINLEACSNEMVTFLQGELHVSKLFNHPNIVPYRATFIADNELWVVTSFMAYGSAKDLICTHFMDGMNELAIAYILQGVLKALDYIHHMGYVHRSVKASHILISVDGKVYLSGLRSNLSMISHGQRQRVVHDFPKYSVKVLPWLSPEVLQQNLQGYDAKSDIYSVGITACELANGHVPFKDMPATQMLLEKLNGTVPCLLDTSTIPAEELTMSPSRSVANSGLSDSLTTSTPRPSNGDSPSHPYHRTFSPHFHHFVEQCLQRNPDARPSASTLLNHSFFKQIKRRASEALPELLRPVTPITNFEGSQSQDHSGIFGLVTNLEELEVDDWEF
The test can be described thus: TNP-ATP saturation binding (fluorescence). As to conditions: STRADα alone. Here is the method:
(§1) Fluorescent measurements of TNP-ATP (Molecular Probes), were obtained at 25°C in assay buffer (with the addition of 0.5–1.0 mM MgCl2 where indicated) using 1-cm pathlength cuvettes in a VARIAN Cary Eclipse Fluorescence spectrophotometer (Varian). Fluorescence was recorded using a 410-nm/540-nm excitation/emission wavelengths from 500 to 600 nm. In all cases, signal from the TNP-ATP buffer control was subtracted as background. For all binding studies, STRADα and STRADα mutants were assayed at 2 µM. In cases where STRADα/MO25α complexes were assayed, wild-type or mutant MO25α (2 µM) were preincubated for at least 2 h at 4°C prior to a fluorescence binding experiment. For saturation binding experiments, concentrated stocks of TNP-ATP were added stepwise, covering a range of concentrations from 0.05 to 30 µM. For displacement experiments, the concentration of TNP-ATP was fixed at 5 µM, and ATP or ADP was titrated in, covering a range of concentrations from 0.05 to 500 µM.
(§2) All data were analysed using GraphPad-PRISM software (http://www.graphpad.com). […] In the displacement studies, equilibrium constant values for ATP and ADP were calculated by first determining the logEC50 value, using a standard dose-response equation: F x/F max = minimum+(maximum−minimum)/(1+10^([N]−logEC 50 ^)), where [N] equals the concentration of added nucleotide, and F x/F max represents the fractional occupancy. Equilibrium constants for the competing ATP and ADP (K d ^N), were fitted using the equation: logEC50 = log(10^logK d ^N × (1+[TNP−ATP]/K d ^TNP−ATP)).

Test [2] addresses T2, STRADα/MO25α complex (Homo sapiens, UniProt Q7RTN6).
T2 construct: wild-type and mutant forms of STRADα (residues 54–431) and MO25α (residues 1–341) were expressed individually as GST fusion proteins in E. coli; GST (cleaved yes); made in house; host or cells: E. coli
T2 sequence (Q7RTN6 54-431): T1 sequence (Q7RTN6 54-431)
T2 sequence (Q9Y376 1-341 partner): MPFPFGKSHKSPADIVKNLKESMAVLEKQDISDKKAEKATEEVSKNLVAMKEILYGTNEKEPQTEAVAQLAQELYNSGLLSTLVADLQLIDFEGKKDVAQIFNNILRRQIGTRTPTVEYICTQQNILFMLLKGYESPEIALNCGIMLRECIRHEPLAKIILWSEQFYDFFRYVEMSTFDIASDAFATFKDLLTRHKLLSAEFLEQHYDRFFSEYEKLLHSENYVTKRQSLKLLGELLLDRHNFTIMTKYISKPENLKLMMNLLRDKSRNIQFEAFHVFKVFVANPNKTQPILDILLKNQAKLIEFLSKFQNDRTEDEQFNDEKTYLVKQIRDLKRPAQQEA
The test can be described thus: TNP-ATP saturation binding (fluorescence). As to conditions: No Mg2+. Here is the method:
as §1, §2

Test [3] addresses T3, MO25α (M260A) (residues 1–341) (human, UniProt Q9Y376 1-341, M260A).
T3 sequence: T2 sequence (Q9Y376 1-341 partner) with M260A
Kind of test: SPR; ATP, Kd2 (second site).

Test [4] addresses T3, MO25α (M260A) (residues 1–341). Kind of test: SPR.
For test [5] the target is unchanged. The test can be described thus: SPR; ATP+Mg2+, Kd2 (second site). (Surface plasmon resonance follows binding to a sensor surface in real time, without labels.)
Test [6] has as its target T4, MO25α (WT) (residues 1–341) (human, UniProt Q9Y376 1-341).
T4 chain: T2 sequence (Q9Y376 1-341 partner)
Kind of test: SPR; ATP+Mg2+, Kd2 (second site).

Test [7] concerns the target T3, MO25α (M260A) (residues 1–341). Kind of test: SPR; ATP+Mg2+, Kd1.
Test [8] has as its target T4, MO25α (WT) (residues 1–341). Kind of test: SPR; ATP+Mg2+, Kd1.
Test [9] deals with T5, MO25α (R227A) (residues 1–341) (human, UniProt Q9Y376 1-341, R227A).
T5 sequence: T2 sequence (Q9Y376 1-341 partner) with R227A
Kind of test: SPR; ATP+Mg2+, Kd1.

Test [10] deals with T3, MO25α (M260A) (residues 1–341). Kind of test: SPR; ATP, Kd1.
Test [11] deals with T5, MO25α (R227A) (residues 1–341). The test can be described thus: SPR; ATP, Kd1.
The target of test [12] is T6, His-STRADα (residues 59–431) (human, UniProt Q7RTN6 59-431, lysines chemically methylated in the 2.35 Å crystal form only).
T6 construct: STRADα (STe-20 Related Adaptor alpha), human, residues 59–431; Crystallised both unmethylated (4.8 Å) and lysine-methylated (2.35 Å, PDB 3GNI); unmethylated in SPR; also called N-terminally 6-His-tagged STRADα; His-tagged STRADα; source: E. coli BL21(DE3)pLysS, coexpressed with untagged MO25α, purified (Ni2+ IMAC, Superdex 75); for SPR separated from MO25α on Ni2+-agarose (500 mM NaCl washes, …)
T6 sequence (looked up): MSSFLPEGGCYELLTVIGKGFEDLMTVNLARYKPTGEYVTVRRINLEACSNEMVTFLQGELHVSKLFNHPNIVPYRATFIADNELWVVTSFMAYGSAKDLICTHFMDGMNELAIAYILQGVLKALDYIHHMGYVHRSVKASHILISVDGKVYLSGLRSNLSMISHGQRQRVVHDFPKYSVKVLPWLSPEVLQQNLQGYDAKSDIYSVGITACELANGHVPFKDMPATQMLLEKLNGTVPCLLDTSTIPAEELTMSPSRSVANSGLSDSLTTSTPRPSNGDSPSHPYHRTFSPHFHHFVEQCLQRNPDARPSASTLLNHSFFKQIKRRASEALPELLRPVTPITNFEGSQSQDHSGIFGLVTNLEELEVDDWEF
Kind of test: crystal structure; co-expressed His-STRADα(59–431)/MO25α(1–341) complex at 7.5 mg/ml with 10 mM ATP and 1 mM MgCl2, sitting drop; unmethylated crystals 4.8 Å, lysine-methylated crystals 2.35 Å, space group P212121. As to conditions: both partners purified.

For test [13], the target named is T7, untagged STRADα (residues 59–431) (human, UniProt Q7RTN6 59-431).
T7 construct: STRADα, human, residues 59–431; also called STRADα lacking the His tag
T7 sequence (looked up): T6 sequence (looked up)
The test can be described thus: SPR; as a2 but with 100 µM ATP and 1 mM MgCl2 (MgATP). As to conditions: both partners purified.

As for `Nc1ncnc2c1ncn2[C@@H]1O[C@H](COP(=O)(O)OP(=O)(O)OP(=O)(O)O)[C@H]2OC3(O[C@H]21)C([N+](=O)[O-])=CC(=[N+]([O-])[O-])C=C3[N+](=O)[O-]` (some centres unmarked) [TNP-ATP, 2′,3′-O-2,4,6-trinitrophenyl-ATP], the figures for the Kd in [1] (0.5 mM Mg2+), in test [1] (No Mg2+) and in [2] were 1300 ± 800 nM, 1100 nM and 90 ± 30 nM, respectively.

B1: untagged STRADα (residues 59–431) (domain or fragment)
chain: T6 sequence (looked up)
For B1, the Kd in test [3] is 30 nM; in [4], 8100 nM; in test [5] it was 82 nM; in test [6], 51 nM; in test [7] it was 2300 nM; in test [8], 5100 nM. For the same molecule, the Kd in test [9] was found to be 800 nM; in [10] it was 1500 nM; in [11] it was 600 nM.

B2: full-length MO25α (residues 1–341), untagged (natural protein, human, UniProt Q9Y376 1-341, looked up)
chain: T2 sequence (Q9Y376 1-341 partner)
modifications: lysines chemically methylated in the 2.35 Å crystal form only
notes: MO25α, human, full length, residues 1–341; source: E. coli BL21(DE3)pLysS, coexpressed with His-STRADα, co-purified (Ni2+ IMAC, Superdex 75)
With B2, the binding result in test [12] is given as “binds”.

B3: MO25α (R227A) (residues 1–341) (natural protein, human, UniProt Q9Y376 1-341, looked up)
chain: T2 sequence (Q9Y376 1-341 partner) with R227A
notes: MO25α, human, residues 1–341 (full length), R227A; source: E. coli, expressed individually as GST fusion, purified on glutathione-Sepharose, eluted with PreScission protease
On to B3, for which the binding result in [13] is “binds”.
